Test results: article PMC11033290

Molecular target: Recombinant MDP1 (Mycobacterial DNA-binding protein 1) of M. tuberculosis produced in Escherichia coli (Mycobacterium tuberculosis) (UniProt P9WMK7)
Assay: cross-linking; glutaraldehyde 0.2%, room temperature, 30 min; 4 µM or 8 µM protein in 150-1500 mM NaCl; SDS-PAGE on a 4-15% gradient gel

## Recombinant MDP1 (Mycobacterial DNA-binding protein 1) of M. tuberculosis produced in Escherichia coli (from UniProt P9WMK7 3-216) (natural protein)
  stoichiometry N: 2
